Nine molecules from PMC13335422 (The Journal of Experimental Medicine, 2026) can be followed below.

Assay [1] addresses Recombinant Bet v1 (major birch pollen allergen Bet v1) (birch) (UniProt P15494). Kind of assay: ELISA. For orientation: An ELISA detects its analyte on a solid surface through an enzyme-linked reagent.
For assay [2] the target is unchanged. Kind of assay: BLI. For orientation: Biolayer interferometry detects binding as a change in optical thickness at a sensor tip.
Assay [3] concerns the target T1, Recombinant Bet v1 (major birch pollen allergen Bet v1) (birch, biotin (biotinylated rBet v1 in the flow cytometry and in the IgE-blocking ELISA; site not stated)).
T1 construct: Bet v1, major allergen of birch pollen (PR-10 family); codon-optimized synthetic gene in pET29b; PDB 4A81 was the Bet v1 model fitted into the cryo-EM map; One molecule for the plain and the biotinylated protein: same construct; also called rBet v1; biotinylated rBet v1
T1 chain: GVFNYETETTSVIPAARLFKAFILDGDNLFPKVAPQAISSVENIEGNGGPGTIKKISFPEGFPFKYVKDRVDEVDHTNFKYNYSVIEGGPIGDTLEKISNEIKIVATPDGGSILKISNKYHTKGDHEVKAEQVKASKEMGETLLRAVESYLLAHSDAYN
Kind of assay: flow cytometry on cells; transduced primary human T cells stained with biotinylated rBet v1 (1 μg/ml) and streptavidin-PE, 30 min at 4°C; mCherry reporter. The settings on record: one partner purified.

Assay [4] has as its target T1, Recombinant Bet v1 (major birch pollen …). As to the kind of experiment: cryo-EM structure; Bet v1 complexed with threefold molar excess of Fab08 and Fab10; reconstruction at 4.8 Å, Cα positioning. The settings on record: both partners purified.

In the case of “mAb 10 (human anti-Bet v1 IgG monoclonal antibody) (from UniProt P01857)”, the EC50 (commonly the midpoint of the concentration-response curve) in assay [1] came to 7.26 ng/mL.

For the molecule “eB20 (human anti-Bet v1 antibody from an IgE clone) (from UniProt P01857)”, the EC50 in assay [1] turned out to be 8.89 ng/mL.

Turning to “mAb 11 (human anti-Bet v1 IgG monoclonal antibody) (from UniProt P01857)”, the Kd (usually the free concentration of one partner at which half of the binding sites on the other are occupied at equilibrium, for simple one-to-one binding) in assay [2] stood at 3.61 nM. In assay [1], the EC50 was determined as 4.26 ng/mL.

B1: CAlleR 11 (anti-Bet v1 chimeric allergen receptor with the scFv of mAb 11, CD28 and CD3ζ domains) (other)
VH: EVELLESGGGLVQPGGSLRLSCVGSGFTFPSYAMTWVRQAPGKGLEWVSAISGGGENSGGSTYYADSVKGRFTISRDNSKNTLFLQMSSLRAEDTAVYYCTREPVSWAFGSGTEYFDYWGQGTLVTVSS
VL: QSVLTQPPSASGTPGQRVTISCSGSSSNIGSNTVTWYHQLPGTAPKLLIYNNHRRPSGVPDRFSGSKSGTAASLGISGLQSEDEAAYYCATWDDSLKGWVFGGGTKLTVL
notes: scFv derived from mAb 11 (variable domains as in m5; GenBank within PZ143166-PZ143179); CD28 hinge, transmembrane and intracellular (costimulatory) domains; CD3ζ intracellular signaling domain; Second-generation CAR design in pCDH-EF1-FHC (Addgene 64874), as in Muller et al., 2021a; source: primary human T cells, lentivirally transduced, on cells
B1: in assay [3], the binding result is recorded as “binds”.

B2: Fab10 (Fab of mAb 10) (Fab, V domains shown)
VH: EVQLVESGGGLVQPGGSLRLSCTASGFTFSSYMTHWVRQAPGKGLEWVSHISGDGTNTTYADTVKGRFFTSRDNVKNTLFLQMDSLRAEDTAVYFCARGSWYTTGWHRNYYFGMDVWGQGTTVTVSS
VL: DIVMTQSPLSLPVTPGEPASISCRSSQSLLHSNGYNYLDWYLQKPGRSPQLLIYLGSHRASGVPDRFSGDGSGTDFTLKISRVEAEDVGVYYCMQVLQTPSFGGGTKVEIK
notes: heavy variable domain as the heavy chain of m4 (mAb 10); constant part of the Fab heavy chain; as the light chain of m4 (mAb 10); The production of the Fabs is not described
B2: the binding result in assay [4] is recorded as “binds”.

B3: CAlleR 10 (anti-Bet v1 chimeric allergen receptor with the scFv of mAb 10, CD28 and CD3ζ domains) (other)
VH: EVQLVESGGGLVQPGGSLRLSCTASGFTFSSYMTHWVRQAPGKGLEWVSHISGDGTNTTYADTVKGRFFTSRDNVKNTLFLQMDSLRAEDTAVYFCARGSWYTTGWHRNYYFGMDVWGQGTTVTVSS
VL: DIVMTQSPLSLPVTPGEPASISCRSSQSLLHSNGYNYLDWYLQKPGRSPQLLIYLGSHRASGVPDRFSGDGSGTDFTLKISRVEAEDVGVYYCMQVLQTPSFGGGTKVEIK
notes: scFv derived from mAb 10 (variable domains as in m4; GenBank within PZ143166-PZ143179); CD28 hinge, transmembrane and intracellular (costimulatory) domains; CD3ζ intracellular signaling domain; Second-generation CAR design in pCDH-EF1-FHC (Addgene 64874), as in Muller et al., 2021a; source: primary human T cells, lentivirally transduced, on cells
Consider B3, for which, in assay [3], the binding result is “binds”.

B4: Fab08 (Fab of mAb 8) (Fab, V domains shown)
VH: EVQLVQSGAEVKKPGDSLKISCKGSGYSFSNFWIGWVRQMPGKGLELMGIVYPGDSDTKYRPSFLGQVTISADKSIATAFLQWSRLTASDTAIYYCARLGATYAGADFWGQGTLVTVSS
VL: DIQMTQSPSSLSASVGDRVTITCRASQTIVTYLNWYQQKPGKAPKLLIYAASNLQSGVPSRFSGSGSGTDFTLTISSLQPEDFAIYYCQQSYAAFGEGTKVEIK
notes: heavy variable domain as the heavy chain of m3 (mAb 8, IGHV5-51); constant part of the Fab heavy chain; as the light chain of m3 (mAb 8, IGKV1-39); The production of the Fabs is not described
For the molecule B4, the binding result in assay [4] is given as “binds”.

B5: CAlleR 5 (anti-Bet v1 chimeric allergen receptor with the scFv of mAb 5, CD28 and CD3ζ domains) (other)
VH: EVQLVQSGAEVKKPGESLNISCNGSGYNFTKYWIAWVRQMPGKGLEWMGIIYPGDSDTKYRPSFQGQVTISADKSITTAYLQWSRLKVSDTAIYYCARLGATYGGADYWGQGTLVTVSS
VL: DIQMTQSPSSLSASVGDRVTITCQASQSIVNYLNWYQQKPGKAPKLLIYAASSLQSGVPSRFSGSGSGTDFTLTISSLQPEDFATYYCQQSYAAFGEGTKVEIT
notes: scFv derived from mAb 5 (variable domains as in m2; GenBank within PZ143166-PZ143179); CD28 hinge, transmembrane and intracellular (costimulatory) domains; CD3ζ intracellular signaling domain; Second-generation CAR design in pCDH-EF1-FHC (Addgene 64874), as in Muller et al., 2021a; source: primary human T cells, lentivirally transduced, on cells
Regarding B5, in assay [3], the binding result is reported as “binds”.

B6: CAlleR 8 (anti-Bet v1 chimeric allergen receptor with the scFv of mAb 8, CD28 and CD3ζ domains) (other)
VH: EVQLVQSGAEVKKPGDSLKISCKGSGYSFSNFWIGWVRQMPGKGLELMGIVYPGDSDTKYRPSFLGQVTISADKSIATAFLQWSRLTASDTAIYYCARLGATYAGADFWGQGTLVTVSS
VL: DIQMTQSPSSLSASVGDRVTITCRASQTIVTYLNWYQQKPGKAPKLLIYAASNLQSGVPSRFSGSGSGTDFTLTISSLQPEDFAIYYCQQSYAAFGEGTKVEIK
notes: scFv derived from mAb 8 (variable domains as in m3; GenBank within PZ143166-PZ143179); CD28 hinge, transmembrane and intracellular (costimulatory) domains; CD3ζ intracellular signaling domain; Second-generation CAR design in pCDH-EF1-FHC (Addgene 64874), as in Muller et al., 2021a; The murine CAlleR 8 (mouse CD28 and CD3ζ domains) is another construct and has no row; source: primary human T …
B6: the binding result in assay [3] is “binds”.
